Test [1] deals with complement C3b (UniProt P01024). Briefly: SPR; proenzyme C3bB formation: C3b amine-coupled to a CM5 chip; CFB flowed at 0.125-4.0 uM, 30 ul/min; 10 mM HEPES pH 7.4, 50 mM NaCl, 3 mM MgCl2, 0.005% surfactant P20; without CFD; Biacore. (In SPR one partner is held on a chip, and binding of the other changes the refractive index at the surface.)
Test [2] shares this target. Description: SPR; C3b amine-coupled to a CM5 chip; CFB flowed at 0.125-4.0 μM, 30 μl/min; 10 mM HEPES pH 7.4, 50 mM NaCl, 3 mM MgCl2, 0.005% surfactant P20; without CFD (proenzyme C3bB formation); two state interaction model.
For test [3] the target is unchanged. Briefly: SPR; C3b amine-coupled to a CM5 chip; CFB as analyte at 1.0-4.0 μM in 10 mM HEPES pH 7.4, 50 mM NaCl, 3 mM MgCl2, 1 mM CFD, 0.005% surfactant P20 (activated C3 convertase C3bBb formation); two state interaction model.
For test [4] the target is unchanged. Briefly: SPR; activated C3 convertase C3bBb formation: C3b amine-coupled to a CM5 chip; CFB flowed at 1.0-4.0 uM with complement factor D (1 mM [sic] CFD); 10 mM HEPES pH 7.4, 50 mM NaCl, 3 mM MgCl2, 0.005% surfactant P20; Biacore.

Usually Kd stands for the free concentration of one partner at which half of the binding sites on the other are occupied at equilibrium, for simple one-to-one binding. Higher therefore signals lower affinity. What is called koff is the first-order rate constant of dissociation. Lower therefore signals slow dissociation. The term kon denotes the second-order rate constant of association. Take “complement factor B, wild type (32R) (from UniProt P00751 26-764) (natural protein)”: the dissociation constant (Kd) amounted to 0.608 µM in the test with complement C3b [1], 0.61 µM in the test with complement C3b [2] and 0.0773 µM with complement C3b [3]. In addition, the off-rate constant (koff) in the test with complement C3b [1] was 0.0088 s⁻¹; with complement C3b [4] it was 0.00247 s⁻¹. The association rate constant (kon) came to 14500 M⁻¹ s⁻¹ with complement C3b [1] and 32000 M⁻¹ s⁻¹ with complement C3b [4].
On to “complement factor B, R32W variant (32W) (from UniProt P00751 26-764) (natural protein)”, for which the values for the off-rate constant (koff) with complement C3b [1] and in the test with complement C3b [4] were 0.015 s⁻¹ and 0.00236 s⁻¹, respectively. The association rate constant (kon) with complement C3b [1] stood at 6700 M⁻¹ s⁻¹; in the test with complement C3b [4], 7420 M⁻¹ s⁻¹. Moreover, the dissociation constant Kd with complement C3b [2] was 2.25 µM; with complement C3b [3] it was 0.318 µM.

Source of the values: article PMC9606215.
